From doi:10.1101/2025.09.11.675134, “Biodistribution-Driven Discovery Identifies a Glycosidase-Cleavable Linker to Reprogram Radiotheranostics” (bioRxiv, 2025)
Where two headings read alike, the source gives them in different places.

Tests used:
[1] = PET/CT quantification of 86Y-labeled variants in AR42J xenograft mice; type: in vivo; details: athymic nude, mouse, in vivo, iv, total radioactivity, 86Y-labeled, PET/CT, AR42J xenograft mice, mean ± SD, n = 3; for SUV at 1 h: 1 h post-injection; for SUV at 4 h: 4 h post-injection; for SUV at 24 h: 24 h post-injection
Procedure: For studies involving three variants (DOTA -TATE, DOTA-MVK(ε)-TATE, and DOTA-β-Gal-TATE), AR42J cells (5 × 10^6 cells per mouse) were subcutaneously inoculated into the right shoulder of the mice. Tumors were allowed to grow for 3 weeks, reaching a volume of 100 –200 mm³ before being used in subsequent experiments. For biodistribution or PET imaging studies, mice bearing subcutaneous AR42J tumors were administered 1.4 – 1.8 MBq (1 μg) of 111In-labeled DOTA-TATE variants or 2.7 – 4.9 MBq (1 μg) of 86Y-labeled DOTA-TATE variants via […]
tail vein injection. […]
PET imaging to assess the uptake of three 86Y-labeled DOTA-TATE variants (2.7 – 4.9 MBq, 1 μg) in the kidney and tumor was performed at 1, 4, and 24 hours post-injection (n = 3 per cohort) in mice bearing AR42J tumors using the MRS*PET/CT 120 scanner (MR Solutions, Guildford, UK). PET/CT data acquisition was managed using Preclinical Scan software (version 4.2.4.0, MR Solutions). Mice were anesthetized with 2% isoflurane, and static PET sc ans were acquired over 10 min. CT scans were obtained for attenuation correction and anatomical co-registration.
PET data were reconstructed using three-dimensional ordered-subsets expectation maximization, and were subsequently normalized, decay - and dead-time–corrected prior to analysis. PET/CT images were analyzed using MIM software (version 7.2.7, MIM Software Inc., Beachwood, OH, USA), and the quantitative evaluation of the maximum standardized uptake (SUVmax) and the average standardized uptake values (SUVmean) in the kidney and tumor were also performed. […]

[2] = Ex vivo biodistribution of 86Y-labeled variants in AR42J tumor-bearing mice; details: athymic nude, mouse, iv, 1 ug, total radioactivity, mean; for tissue uptake at 1 h: 1 h post-injection; for tissue uptake at 4 h: 4 h post-injection; for tissue uptake at 24 h: 24 h post-injection
Procedure: To independently confirm these observations, ex vivo biodistribution studies were conducted using the same ^86Y-labeled compounds at matched timepoints (Fig. S16; Table S3). […]
For studies involving three variants (DOTA -TATE, DOTA-MVK(ε)-TATE, and DOTA-β-Gal-TATE), AR42J cells (5 × 10^6 cells per mouse) were subcutaneously inoculated into the right shoulder of the mice. Tumors were allowed to grow for 3 weeks, reaching a volume of 100 –200 mm³ before being used in subsequent experiments. For biodistribution or PET imaging studies, mice bearing subcutaneous AR42J tumors were administered 1.4 – 1.8 MBq (1 μg) of 111In-labeled DOTA-TATE variants or 2.7 – 4.9 MBq (1 μg) of 86Y-labeled DOTA-TATE variants via tail vein injection. Biodistribution studies with 111In-labeled DOTA -TATE variants were performed 1 hour post -injection (n = 3 per cohort), while studies with 86Y-labeled DOTA-TATE variants were conducted at 1, 4, and 24 hours post -injection (n = 3 per cohort). Mice were euthanized by CO2 asphyxiation, and 10 tissues, including tumors, were collected. All samples were weighed and counted on a gamma counter (2480 Wizard 3, Perkin Elmer Inc., Waltham, MA, USA). Results are presented as percentage of injected activity per gram (%IA/g) and mean values ± standard deviations. […]

[3] = 2.7–4.9 MBq (1 μg), read-out: Kidney SUVmax
[4] = blood, i.v. 1 μg (2.7–4.9 MBq), ex vivo gamma counting, n = 3, read-out: Blood uptake
[5] = blood, ex vivo, n = 3, read-out: Blood uptake
[6] = femur, ex vivo, n = 3, read-out: Femur uptake
[7] = heart, ex vivo, n = 3, read-out: Heart uptake
[8] = intestine, ex vivo, n = 3, read-out: Intestine uptake
[9] = ex vivo, n = 3, read-out: Tumor uptake
[10] = kidney, ex vivo, n = 3, read-out: Kidney uptake
[11] = liver, ex vivo, n = 3, read-out: Liver uptake
[12] = lung, ex vivo, n = 3, read-out: Lung uptake
[13] = muscle, ex vivo, n = 3, read-out: Muscle uptake
[14] = spleen, ex vivo, n = 3, read-out: Spleen uptake

Row | Compound | SUV at 1 h [1, 3] | SUV at 1 h ([1]; read-out: Tumor SUVmax) | SUV at 4 h ([1]; read-out: Kidney SUVmax) | SUV at 24 h ([1]; read-out: Kidney SUVmax) | SUV at 24 h ([1]; read-out: Tumor SUVmax) | tissue uptake at 1 h [2, 4] | tissue uptake at 4 h [2, 5] | tissue uptake at 24 h [2, 5] | tissue uptake at 1 h [2, 6] | tissue uptake at 4 h [2, 6] | tissue uptake at 24 h [2, 6] | tissue uptake at 1 h [2, 7] | tissue uptake at 4 h [2, 7] | tissue uptake at 24 h [2, 7] | tissue uptake at 1 h [2, 8] | tissue uptake at 4 h [2, 8] | tissue uptake at 24 h [2, 8] | tissue uptake at 1 h [2, 9] | tissue uptake at 4 h [2, 9] | tissue uptake at 24 h [2, 9] | further results
1 | C[C@@H](O)[C@H](NC(=O)[C@@H]1CSSC[C@H](NC(=O)[C@@H](Cc2ccccc2)NC(=O)CN2CCN(CC(=O)O)CCN(CC(=O)O)CCN(CC(=O)O)CC2)C(=O)N[C@@H](Cc2ccc(O)cc2)C(=O)N[C@H](Cc2c[nH]c3ccccc23)C(=O)N[C@@H](CCCCN)C(=O)N[C@@H]([C@@H](C)O)C(=O)N1)C(=O)O [^86Y-DOTA-TATE, metal not drawn, reference compound] | 0.95 ± 0.04 SUV | 0.85 ± 0.14 SUV | 0.62 ± 0.06 SUV | 0.41 ± 0.02 SUV | 0.55 ± 0.04 SUV | 0.22 %ID/g | 0.14 %ID/g | 0.03 %ID/g | 0.47 %ID/g | 0.35 %ID/g | 0.2 %ID/g | 0.37 %ID/g | 0.25 %ID/g | 0.09 %ID/g | 0.37 %ID/g | 0.51 %ID/g | 0.05 %ID/g | 5.98 %ID/g | 4.83 %ID/g | 3.48 %ID/g | tissue uptake at 1 h [2, 10]: 9.29 %ID/g; tissue uptake at 4 h [2, 10]: 6.61 %ID/g; tissue uptake at 24 h [2, 10]: 3.74 %ID/g; tissue uptake at 1 h [2, 11]: 0.29 %ID/g; tissue uptake at 4 h [2, 11]: 0.25 %ID/g; tissue uptake at 24 h [2, 11]: 0.15 %ID/g; tissue uptake at 1 h [2, 12]: 0.83 %ID/g; tissue uptake at 4 h [2, 12]: 0.34 %ID/g; tissue uptake at 24 h [2, 12]: 0.13 %ID/g; tissue uptake at 1 h [2, 13]: 0.44 %ID/g; tissue uptake at 4 h [2, 13]: 0.38 %ID/g; tissue uptake at 24 h [2, 13]: 0.1 %ID/g; tissue uptake at 1 h [2, 14]: 0.4 %ID/g; tissue uptake at 4 h [2, 14]: 0.25 %ID/g; tissue uptake at 24 h [2, 14]: 0.15 %ID/g
2 | C[C@@H](O)[C@H](NC(=O)[C@@H]1CSSC[C@H](NC(=O)[C@@H](Cc2ccccc2)NC(=O)CCCC(=O)Nc2cc(COC(=O)N(C)CCNC(=O)CN3CCN(CC(=O)O)CCN(CC(=O)O)CCN(CC(=O)O)CC3)ccc2O[C@@H]2O[C@H](CO)[C@H](O)[C@H](O)[C@H]2O)C(=O)N[C@@H](Cc2ccc(O)cc2)C(=O)N[C@H](Cc2c[nH]c3ccccc23)C(=O)N[C@@H](CCCCN)C(=O)N[C@@H]([C@@H](C)O)C(=O)N1)C(=O)O [^86Y-DOTA-β-Gal-TATE, metal not drawn] | 0.54 ± 0.05 SUV | 1.96 ± 0.26 SUV | 0.4 ± 0.02 SUV | 0.14 ± 0.01 SUV | 1.86 ± 0.25 SUV | 0.32 %ID/g | 0.23 %ID/g | 0.02 %ID/g | 0.97 %ID/g | 0.96 %ID/g | 1.01 %ID/g | 0.33 %ID/g | 0.26 %ID/g | 0.11 %ID/g | 0.49 %ID/g | 0.33 %ID/g | 0.1 %ID/g | 9.71 %ID/g | 9.16 %ID/g | 9.03 %ID/g | SUV at 4 h ([1]; read-out: Tumor SUVmax): 1.63 ± 0.09 SUV; tissue uptake at 1 h [2, 10]: 3.94 %ID/g; tissue uptake at 4 h [2, 10]: 3.29 %ID/g; tissue uptake at 24 h [2, 10]: 0.76 %ID/g; tissue uptake at 1 h [2, 11]: 0.4 %ID/g; tissue uptake at 4 h [2, 11]: 0.35 %ID/g; tissue uptake at 24 h [2, 11]: 0.27 %ID/g; tissue uptake at 1 h [2, 12]: 0.72 %ID/g; tissue uptake at 4 h [2, 12]: 0.58 %ID/g; tissue uptake at 24 h [2, 12]: 0.15 %ID/g; tissue uptake at 1 h [2, 13]: 0.48 %ID/g; tissue uptake at 4 h [2, 13]: 0.25 %ID/g; tissue uptake at 24 h [2, 13]: 0.09 %ID/g; tissue uptake at 1 h [2, 14]: 0.32 %ID/g; tissue uptake at 4 h [2, 14]: 0.5 %ID/g; tissue uptake at 24 h [2, 14]: 0.12 %ID/g
